assay: soluble on expression in E. coli; label from the status in PepcDB or PDB records

Sequence | soluble on expression in E. coli
MMNVPEGFQPLFRSSPLLDLLGPFFCRQDAQRQLVVALRIDEKHCNHGGTAHGGLLSTLADVGLGYAMAFSREPPQPMVTVGLRLDFCGVARVGDWLEVHTRVDKLGQRMAFASARLHSGERLVASASGVFHLP | not soluble
MGSDKIHHHHHHMSRQKFVNRERELAFLEERYASGDAELLIIYGRRRIGKTELLLHFARNKEHVYFLASEKPYRDNLRELQRMMGDFLGDRLFSRIEFSDIDELLIEFSKRVRGRRVVLIIDEFPYLIEHYKPVLSLIQRAWDMELSKSDLLLILCGSSVSSMETEVLGYKSPLYGRRTGQWMVDELPFWSLREFFPSYSTEDIVKVYGVLGGIPAYLLQFDPEKSFDENVVEKVLSKGAFLYEEAEILLKEEMREPANYFIILQAIASGRSRFGEIVNATGLDKSLVSKYLNVLEKLRIVEREVPVTASRKEALKRGKYSITDNYLAFWFRYVLPNKSYLETGLGKEIWERSKEDFKEYMGGVFERLLRKPEVFTKLTNFRFTKIGRWWHKGEEIDLVALNEREKKALFIEVKWKDLSEREARGILKDLKRKVKLVGLDEWGKHYGLVAKNVKGKDKIKEEGWLAWDLEDFERLGVSG | not soluble
MGSDKIHHHHHHMLSLTEQLNRGPVVSDGAMATELEKRGVATNSALWSATAMLDHPDAIQAVHQSYLDAGAKIMTTNTYQANVPAFEQAGIAAVQARQLIQQAVTIAHTARDASHVTDAVIAGSIGPYGAYLADGSEYTGAYQLTPSAYQDFHRERLALIMAAGVDVLALETMPRLDEVQALVQLITTTWPQQPYWVSFSIKDPQTLCDGTSLAVAAKWVAAQPNVVAVGVNCTTLENIAPALTTLKAAVAVPLIVYPNSGDQYDPVTKTWQETHLSHQFASFVPQWLAAGARIIGGCCRTTPKDIATVARALSVSDSAKL | not soluble
MGSDKIHHHHHHMLLNLFNEMRAAKVPVSVRELLDLIDALKHRVVFADMDEFYYLARTIMVKDERHFDKFDRAFGAYFKGLEKLDDHLKALIPEEWLRKEFERLLTDEEKAQIQSLGGLDKLIEEFKKRLEEQKERHAGGNKWIGTGGTSPFGSGGFNPEGIRVGDAGKRQGKAAKVWDQREYKNLDDQVELGTRNIKIALRRLRKFAREGAAEELDIDGTIDHTAKDAGLLNIQMRPERRNTVKLLLLLDIGGSMDAHVKVCEELFSACKTEFKHLEYFYFHNFIYESVWKNNLRRSSERTATFDLLHKYGPDYKVVFVGDAAMAPYEITQAGGSVEHWNEEAGYVWMQRFMEKYKKLIWINPYPKDTWNYTASTGLVRELVKEQMYPLTLSGLEEGMRFLSRG | not soluble
MSLAEKICITEIDKLSQKLLRIETELNANIPTTLWISDLHGEGDRFKSILRGRFGMLYQTCKEGLPATFTPEKIQYLAKIVRKKNYFADSQQQMDRQDVILCFVQILKYKLTNSTNRNREIFLPEFRETIGRLLAGLPVPDPIFEESIISDRLIFHLSYAIRQVLLDRIQVLGDVFDRGSQPDKIIRILSSPAYKEMVDYVFGNHDILWMGAAAGTPSLVAETLRITCRYDHFRLLNRLRFDTSRLAEFAERTYEIKKATGKFKAKTDRGRAMEKALTVIQFKLEEKLINDFPHYGMEKRLWLERLAEMLKTGATEELNDSDFPTIDLENPSKLSKEESEIINDLIEQFRSNKYLKRLLKFFFEEGSTYHISNNFLNIHALVPSTKEGEFEEFMGHKGKDLLDYIQKVIRRTGQNYLYNREQSADDLALFFYLWCGPKSPFFGKHAMKTFERYFLLDKERHAEHSLYWQKNMQSDAFKEKMQEEFGIQRVIFGHTPVNYMQGNKMASEDGVAINVDGGFAAAYYNRGHALVHTPHQLYGIILPTPDELIKAAVRLEPAPLDIEFIDEFPQPLKIKNTIAGKLLQQERDLIMGKIQSYNSEGHHHHHH | soluble
MNIELLQQLCEASAVSGDEQEVRDILINTLEPCVNEITFDGLGSFVARKGNKGPKVAVVGHMDEVGFMVTHIDESGFLRFTTIGGWWNQSMLNHRVTIRTHKGVKIPGVIGSVAPHALTEKQKQQPLSFDEMFIDIGANSREEVEKRGVEIGNFISPEANFACWGEDKVVGKALDNRIGCAMMAELLQTVNNPEITLYGVGSVEEEVGLRGAQTSAEHIKPDVVIVLDTAVAGDVPGIDNIKYPLKLGQGPGLMLFDKRYFPNQKLVAALKSCAAHNDLPLQFSTMKTGATDGGRYNVMGGGRPVVALCLPTRYLHANSGMISKADYEALLTLIRGFLTTLTAEKVNAFSQFRQVD | not soluble
MGSDKIHHHHHHVFKYMKKLLIVTTVPETLATILQSQPTFLNEEYEVFLASSTGIQQVADIENVRCFTINMYRGYSPFKDLFSIFKMFYLLLRIKPHIIHSYTPKAGLVCAIAAYFARVPHRIHTFTGLLFPTATGFKHLILKFTDKLVIYLNTHIVCEGYGVWRQFYRFGFSESKFEVIGNGNIAGVDLCYFDPDIVDLSVKSNLISSYKLEGCKVFLYVGRLNVDKGIKELVNAFINLNDNSKLLIVGALDTTAPPDDDTLLKIKVNPNIIDFGFLNDIRPIMSISSCLILPSYREGFPNVVLQAGAMELPCIVTDIPGCNEIISHDVNGWLVKPKCIDALESAMNDFLSLDNAKLLSVKKEASENIKTNFERSFYQKKLLNFYNKVLEND | not soluble
MNEDMEFFNRFSHMYLHGFKNLSDMFAEPATEHGITLDEFYILYDIAEAKGKIRLMDIAESHGVTRSAISRLIGRLLRKDYLYQEAEDHDRRNKVLKLTPEGARIEHEVFTELIQRNREWRQSFSLAKQYQTLNLVEEFMDKFVNEDASKQTKKATYADTDLKRAEA | not soluble
MSLTEAAKLTFKVTNPNEKVKVRLTFSQSGEQKEVAIDAAGNGNIEITGFTPQYVTMQYTRGRRTLYLDPNQDLTLSFDSDNMWRNTTFEGAGAAINTYLGSKELQSLGMPDMKMQEAALIHKGDSLYAANCQVLEAAKLPADFTAQEKIRLQFYTYYYFSKYALYHPHFGKDDNYIPSKAYYEKLEAITPINAGLLALKEYKAFLPDAISAFSNKGKTVASNSTEQSVNYVDATIQDEKVAEFLIDQFVYNFVDNNGLDEADGLIVLFRKHVKDAKSIEKFNALCTKWEKLRSGNPSAASFSYPDINGKTVSLADLKGKYIYIDVWATWCGPCRGELPALKELEEKYAGKDIHFVSLSCDKNKKAWENMVTKDQLKGIQLHMGTDRTFMDAYLINGIPRFILLDRDGKIISANMTRPSDPKTAEKFNELLGLEGHHHHHH | soluble
MGSDKIHHHHHHMLAGKTASEIFDNIRHLVQSGGLQPGEVLPPVRELASQLAVNRNTVAAAYKRLVTSGLAVSQGRNGTAIKARDTLPALEGGDPTTPLNDISSGNPDPARLPDLPRYLGQIARTPRLYGDAPIEPRLGQWAEAWFAREIAVPFAVNLASGAIDALERLLCALLLPGDGVVVEDPCFLSSINMVRYAGFTPCPVAVDAEGMDPDGLEEALRNGARAVILTPRAHNPTGCSLTETRAHALREVLARYPQVLAIVDDHFALLSATPWHSPLPASTQRWALVRSMSKTLGPDLRLAFIASDAATSAALRLRLNAGSQWVSHLLQDLTLACLTDEAFIASMTETRRHYRQQNEKLAAALARHGFSHATPGDGLNFWLPLPAASQPYALRLARAGWLVREGEVFGIRTPSHGLRLSLGRLSDAEISRLAADIAQALDAP | not soluble
NEKFRPEMLQGKKVIVTGASKGIGREIAYHLAKMGAHVVVTARSKEALQKVVARCLELGAASAHYIAGSMEDMTFAEEFVAEAGNLMGGLDMLILNHVLYNRLTFFHGEIDNVRKSMEVNFHSFVVLSVAAMPMLMQSQGSIAVVSSVAGKITYPLIAPYSASKFALDGFFSTLRSEFLVNKVNVSITLCILGLIDTETAIKATSGIYLGPASPKEECALEIIKGTALRQDEMYYVGSRWVPYLLGNPGRKIMEFLSAAEYNWDNVLSNEKLYGRWA | soluble
MGSDKIHHHHHHDKMNKNTGALQFDSIQVNETAHLFNDTAKPACNIIINFAYPVKSSDDMLKDSLNAYFISVCFGDKYIGEKPEAVVKQYAKNYIDEYRHDQEPMYAEDEKNKESDAVVGAWYSYYKSIESHVQLYEKDLLVYRVDYNEYTGGAHGMYMSTFLNMDLTLMRPLRLDDIFVGDFQEALTDLIWNQLMADNKVTTHEALEDMGYASTGDIAPTENFYLSKEGITFYYNIYDITPYSMGPVKVTIPYSMMEHLLGSNPILGDLKD | not soluble
MEYKDATHTTATQTVHYVNQDGDKVFDDDTSQTLNYERGVTIDEVTGEVISYGDWTPVDGDEFGSVTSPDKPGYAVDTKVVSGEKPEITNGKDGKVNDVEVTVTYTASNEDATLEHHHHHH | soluble
HDTRKIIAKQLGPHTYLVSGRMEIDDVNERFGLSLPESDDYLTVAGFILNSHQNIPQANEVVEIAPYTFTILRSSSTKIELVKMSIDD | not soluble
MSEAEAKLWQHLRAGRLNGYKFRRQQPMGNYIVDFMCVTPKLIVEADGGQHAEQAVYDHARTVYLNSLGFTVLRFWNHEILQQTNDVLAEILRVLQELEKQ | soluble
MAAPGPALCLFDVDGTLTAPRQKITKEMDDFLQKLRQKIKIGVVGGSDFEKVQEQLGNDVVEKYDYVFPENGLVAYKDGKLLCRQNIQSHLGEALIQDLINYCLSYIAKIKLPKKRGTFIEFRNGMLNVSPIGRSCSQEERIEFYELDKKENIRQKFVADLRKEFAGKGLTFSIGGQISFDVFPDGWDKRYCLRHVENDGYKTIYFFGDKTMPGGNDHEIFTDPRTMGYSVTAPEDTRRICELLFS | soluble
GMSRDRLYTWAGLWRSPSSSWEALRLEDDQAESQLRAPDERSGLPYQLDYRLRWDADWHLREAVFHVESETGVRKLHLLADGRGHWQDGDGEALPAFDGCLDIDIWPSPFTNTFPIRRLGLADGQRAEIRALYIEAPALEPRSMRQAYTRLDASHYLYENLEGSAFKAVLLVDEQGLVIDYPGLFQRL | soluble
MNIKSLQLFIHLCESKSFAKTAAAMHISPSALSRQIQKLEEETNQQLFVRDNRSVELTTQGKKLMPVALKILSEWQQYQNHIKGTEGELKGEIRLFCSVTASYSHLPELISDFRLQHPFIEFKLSTGDPAQAIDKILADEADIAISAKSEQMPNKIAFET | not soluble
